Literature values as cited in paper PMC7130864.

Molecular target: Kv1.3 (Homo sapiens) (UniProt P22001)
Sequence of UniProt P22001 (P22001 whole entry): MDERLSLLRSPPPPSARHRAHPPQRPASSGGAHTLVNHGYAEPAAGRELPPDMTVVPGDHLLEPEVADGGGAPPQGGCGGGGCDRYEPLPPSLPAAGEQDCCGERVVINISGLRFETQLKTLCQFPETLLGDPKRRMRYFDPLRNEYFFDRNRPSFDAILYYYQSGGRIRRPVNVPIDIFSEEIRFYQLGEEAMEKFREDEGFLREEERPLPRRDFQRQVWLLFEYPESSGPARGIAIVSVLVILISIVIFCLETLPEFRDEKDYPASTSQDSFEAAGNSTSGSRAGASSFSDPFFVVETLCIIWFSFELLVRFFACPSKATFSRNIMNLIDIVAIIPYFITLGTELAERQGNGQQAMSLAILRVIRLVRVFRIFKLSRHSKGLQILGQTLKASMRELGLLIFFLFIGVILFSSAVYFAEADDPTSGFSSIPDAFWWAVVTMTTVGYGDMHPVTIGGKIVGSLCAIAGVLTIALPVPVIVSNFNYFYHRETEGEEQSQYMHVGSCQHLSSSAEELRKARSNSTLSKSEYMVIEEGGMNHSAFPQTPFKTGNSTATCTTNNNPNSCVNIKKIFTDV

**Q.** For BmKTX (from UniProt Q9NII7), which Kd is on record?
**A.** 0.2 nM
